Holding throughout (assay): SPR, KD relative to WT C2;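 further: biacore SPR at 37 °C, anti-C2 mAbs captured via immobilised goat anti-human IgG, C2 alanine or serine surface mutants as analytes, 1:1 model fitted, double-referenced sensograms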
In general terms: Surface plasmon resonance follows binding to a sensor surface in real time, without labels.

One test deals with T1, human C2 N327A (human, UniProt P06681 21-752).
T1 sequence: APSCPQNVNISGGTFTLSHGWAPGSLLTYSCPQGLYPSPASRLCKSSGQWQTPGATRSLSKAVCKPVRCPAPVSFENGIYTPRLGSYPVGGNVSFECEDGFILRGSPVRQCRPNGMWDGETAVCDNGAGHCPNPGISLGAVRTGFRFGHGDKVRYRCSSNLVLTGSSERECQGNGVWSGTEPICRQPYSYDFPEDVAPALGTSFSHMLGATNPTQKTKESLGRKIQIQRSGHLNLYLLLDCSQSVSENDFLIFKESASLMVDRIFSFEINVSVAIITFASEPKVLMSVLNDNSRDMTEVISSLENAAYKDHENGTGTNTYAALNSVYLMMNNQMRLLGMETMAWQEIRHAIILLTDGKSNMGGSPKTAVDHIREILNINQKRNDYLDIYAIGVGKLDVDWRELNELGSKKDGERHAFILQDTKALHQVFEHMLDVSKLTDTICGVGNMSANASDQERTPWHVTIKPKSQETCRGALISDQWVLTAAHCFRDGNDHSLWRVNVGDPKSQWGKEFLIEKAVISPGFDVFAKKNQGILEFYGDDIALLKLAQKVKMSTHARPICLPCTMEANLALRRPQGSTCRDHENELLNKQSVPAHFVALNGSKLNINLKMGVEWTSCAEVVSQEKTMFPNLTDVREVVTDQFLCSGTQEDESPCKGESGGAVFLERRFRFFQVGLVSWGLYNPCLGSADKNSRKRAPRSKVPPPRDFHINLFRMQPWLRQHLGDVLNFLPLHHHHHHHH

The target of the next test is T2, human C2 D419A (human, UniProt P06681 21-752).
T2 sequence: T1 sequence with A307N, D399A

The target in a further test is T3, human C2 F437A (human, UniProt P06681 21-752).
T3 sequence: T1 sequence with A307N, F417A

In a further test the target is T4, human C2 S473A (human, UniProt P06681 21-752).
T4 sequence: T1 sequence with A307N, S453A

Where a chain is given by its changes, count along the chain named.

B1: RF16-226 (antibody, human IgG4 S228P, lambda)
heavy: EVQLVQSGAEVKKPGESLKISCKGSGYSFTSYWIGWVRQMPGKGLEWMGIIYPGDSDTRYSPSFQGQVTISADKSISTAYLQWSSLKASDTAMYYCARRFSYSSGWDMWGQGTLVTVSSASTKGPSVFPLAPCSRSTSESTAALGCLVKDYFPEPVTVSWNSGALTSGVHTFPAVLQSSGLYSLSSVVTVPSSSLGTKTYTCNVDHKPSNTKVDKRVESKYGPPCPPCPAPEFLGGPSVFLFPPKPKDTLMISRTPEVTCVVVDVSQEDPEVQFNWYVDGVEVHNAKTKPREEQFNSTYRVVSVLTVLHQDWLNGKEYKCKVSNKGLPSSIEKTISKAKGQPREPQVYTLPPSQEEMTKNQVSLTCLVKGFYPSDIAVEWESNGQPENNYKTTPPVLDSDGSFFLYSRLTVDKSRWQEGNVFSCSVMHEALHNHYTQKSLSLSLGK
light: SYELTQPPSVSVSPGQTARITCSGDALTSKYVAWYQQKSGLAPLLVIYEDTRRPSGIPAKFSGSSSGSVATLTISGAHGDDEADYYCYSTDASGHQRVFGGGTKLTVLSQPKAAPSVTLFPPSSEELQANKATLVCLISDFYPGAVTVAWKADGSPVKAGVETTKPSKQSNNKYAASSYLSLTPEQWKSHRSYSCQVTHEGSTVEKTVAPTECS
notes: pH-dependent anti-C2 antibody from a phage display library; also called WT
As to B1, the Fold diff stood at 7 fold with human C2 N327A, 2 fold with human C2 D419A, 26 fold with human C2 F437A and 1 fold with human C2 S473A.
